This assay has as its target Recombinant pseudopilin domain of Naegleria gruberi GspG1 (NgGspG1) lacking the N-terminal hydrophobic part (Naegleria gruberi). In words: MST; Monolith NT.115; 10 nM protein labelled with Red-NHS dye NT-647, unlabelled protein titrated to 50 uM; 50 mM HEPES, 50 mM NaCl.

Drawing on publication PMC8134430, this text covers Kd for one substance.

With “Recombinant pseudopilin domain of Naegleria gruberi GspG1 (NgGspG1) lacking the N-terminal hydrophobic part (domain or fragment)”, the Kd – broadly, the free concentration of one partner at which half of the binding sites on the other are occupied at equilibrium, for simple one-to-one binding – was determined as 216 nM.
